We go through 8 molecules from patent US20240116985A1, “STAPLED PEPTIDES AND METHODS THEREOF” (priority 2020, published 2024).

Starred links: 1 amine or outer side, 2 acyl side, 3 side chain; linkers in the order of their positions; H or OH if unused. Positions of bridges follow the written chain, without caps; N, C: chain ends. Non-standard residues stand in square brackets, D forms with d. Primed or numbered codes have the meaning given here. *: point of attachment. PyrS2″ = (S)-3-amino-1-((pent-4-en-1-yloxy)carbonyl)pyrrolidine-3-carboxylic acid (stapling residue), C=CCCCOC(=O)N1CC[C@@](N[*:1])(C(=O)[*:2])C1; B5(4) = 2,2-bis(4-pentenyl)glycine = 2-amino-2-(pent-4-en-1-yl)hept-6-enoic acid (stitching residue), C=CCCCC(CCCC=C)(N[*:1])C(=O)[*:2]; TfeGA = (S)-2-amino-3-((carboxymethyl)(2,2,2-trifluoroethyl)amino)propanoic acid, O=C([C@H](CN(CC(=O)[*:3])CC(F)(F)F)N[*:1])[*:2]; PyrS2 = (S)-3-amino-1-((pent-4-en-1-yloxy)carbonyl)pyrrolidine-3-carboxylic acid, C=CCCCOC(=O)N1CC[C@@](N[*:1])(C(=O)[*:2])C1; B5(12) = 2-amino-2-(pent-4-en-1-yl)hept-6-enoic acid (two olefin side chains), C=CCCCC(CCCC=C)(N[*:1])C(=O)[*:2]; B5(3) = 2,2-bis(4-pentenyl)glycine (stitching residue), C=CCCCC(CCCC=C)(N[*:1])C(=O)[*:2]; B5 = 2-amino-2-(pent-4-en-1-yl)hept-6-enoic acid, C=CCCCC(CCCC=C)(N[*:1])C(=O)[*:2]; 4pentenyl = N-terminal pent-4-enoic acid (acyl cap), C=CCCC(=O)*; Phe(2-Cl) = N[C@@H](Cc1ccccc1Cl)C(=O)O; 2Nal = N[C@@H](Cc1ccc2ccccc2c1)C(=O)O; Bta = N[C@@H](Cc1csc2ccccc12)C(=O)O; αAllylPro = C=CC[C@@]1(C(=O)O)CCCN1; tBuAla = CC(C)(C)C[C@H](N)C(=O)O; 3Thi = N[C@@H](Cc1ccsc1)C(=O)O; S8 = C=CCCCCCC[C@](C)(N)C(=O)O; hSer = N[C@@H](CCO)C(=O)O

Test [1] addresses Bcat-Halo (UniProt P35222). In words: NanoBRET Abs IC50; Bcat-Halo/TCF4-Luc engagement in HEK293 cells. For orientation: In BRET a luciferase serves as donor, and the signal depends on an acceptor being close.
The target of test [2] is full-length beta-Catenin (Uniprot ID P35222) (Homo sapiens (Human)) (UniProt P35222). In words: fluorescence polarization competition; 5FAM-TCF4 10-53 probe on full-length beta-catenin. For orientation: Polarisation of emitted light reports the rotation of a fluorescent probe.
Target sequence in this assay (P35222 whole entry, one chain of several): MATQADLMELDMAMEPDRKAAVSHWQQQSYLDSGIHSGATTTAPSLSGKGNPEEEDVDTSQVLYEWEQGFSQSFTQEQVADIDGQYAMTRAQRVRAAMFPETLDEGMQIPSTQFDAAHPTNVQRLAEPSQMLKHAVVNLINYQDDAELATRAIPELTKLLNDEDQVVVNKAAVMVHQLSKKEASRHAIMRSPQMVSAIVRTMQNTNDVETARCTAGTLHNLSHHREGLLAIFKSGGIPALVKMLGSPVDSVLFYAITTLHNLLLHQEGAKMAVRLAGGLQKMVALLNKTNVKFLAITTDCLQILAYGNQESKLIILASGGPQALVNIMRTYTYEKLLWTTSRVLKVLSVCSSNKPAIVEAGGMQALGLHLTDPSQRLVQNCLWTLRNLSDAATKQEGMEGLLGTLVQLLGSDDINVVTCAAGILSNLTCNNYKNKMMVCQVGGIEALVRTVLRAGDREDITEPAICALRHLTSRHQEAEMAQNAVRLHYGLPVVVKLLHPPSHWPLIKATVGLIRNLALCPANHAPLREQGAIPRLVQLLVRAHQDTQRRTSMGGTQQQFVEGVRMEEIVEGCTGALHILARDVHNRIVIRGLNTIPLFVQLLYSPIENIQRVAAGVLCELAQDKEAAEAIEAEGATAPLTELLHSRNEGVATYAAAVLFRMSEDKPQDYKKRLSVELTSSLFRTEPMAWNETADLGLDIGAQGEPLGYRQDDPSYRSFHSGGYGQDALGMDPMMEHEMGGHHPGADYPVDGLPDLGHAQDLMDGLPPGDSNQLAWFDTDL
Test [3] has the same target. In words: fluorescence polarization competition, peptide titrated against full-length beta-catenin + 5FAM-TCF4(10-53).
Target sequence in this assay (P35222 2-781 limits assumed): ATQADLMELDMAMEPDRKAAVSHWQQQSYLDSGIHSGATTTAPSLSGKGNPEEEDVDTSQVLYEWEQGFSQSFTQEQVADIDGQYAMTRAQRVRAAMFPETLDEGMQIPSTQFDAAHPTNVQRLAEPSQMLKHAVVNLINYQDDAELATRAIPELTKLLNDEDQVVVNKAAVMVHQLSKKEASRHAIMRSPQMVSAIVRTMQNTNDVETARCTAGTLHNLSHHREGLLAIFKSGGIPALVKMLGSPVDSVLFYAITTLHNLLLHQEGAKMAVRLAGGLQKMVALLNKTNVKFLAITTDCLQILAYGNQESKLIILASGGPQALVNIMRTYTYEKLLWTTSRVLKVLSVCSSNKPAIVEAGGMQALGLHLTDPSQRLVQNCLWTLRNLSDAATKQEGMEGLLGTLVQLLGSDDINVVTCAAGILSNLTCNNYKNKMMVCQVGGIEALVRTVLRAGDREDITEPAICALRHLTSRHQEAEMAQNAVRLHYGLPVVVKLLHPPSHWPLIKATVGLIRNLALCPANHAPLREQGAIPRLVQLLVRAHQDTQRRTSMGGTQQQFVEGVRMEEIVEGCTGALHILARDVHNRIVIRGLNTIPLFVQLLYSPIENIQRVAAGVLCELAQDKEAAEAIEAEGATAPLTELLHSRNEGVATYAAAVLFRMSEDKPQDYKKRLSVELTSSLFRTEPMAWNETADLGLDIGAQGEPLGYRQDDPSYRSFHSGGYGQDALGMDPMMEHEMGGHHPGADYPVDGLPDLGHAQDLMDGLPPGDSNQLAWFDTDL
The target in test [4] is Bcat-Halo (UniProt P35222). In words: NanoBRET Abs IC50 (absolute IC50) in HEK293 cells, Bcat-Halo / TCF4-Luc engagement.
Test [5] deals with full-length beta-Catenin (Uniprot ID P35222) (Homo sapiens (Human)) (UniProt P35222). In words: fluorescence polarization competition, full-length beta-catenin with 5FAM-TCF4(10-53) probe.
Target sequence in this assay (P35222 2-781 limits assumed): as above
Test [6] has the same target. In words: fluorescence polarization competition; 10 nM full-length beta-catenin; competitor 5FAM-TCF4 10-53 probe.
Target sequence in this assay (P35222 whole entry, one chain of several): as the sequence (P35222 whole entry, one chain of several) above
In test [7] the target is Bcat-Halo (UniProt P35222). In words: NanoBRET Abs IC50; HEK293 cells transfected with B-cat-Halo and TCF4-Luc.
The target of test [8] is full-length beta-Catenin (Uniprot ID P35222) (Homo sapiens (Human)) (UniProt P35222). In words: fluorescence polarization competition; full-length beta-catenin, 5FAM-TCF4(10-53) probe.
Target sequence in this assay (P35222 2-781 limits assumed): as the sequence (P35222 2-781 limits assumed) above
Test [9] shares this target. In words: AlphaScreen competition; full-length beta-catenin with biotin-TCF4(10-53) probe as competitor.
Target sequence in this assay (P35222 2-781 limits assumed): as above
In test [10] the target is Bcat-Halo (UniProt P35222). In words: NanoBRET Abs IC50 in HEK293 cells; Bcat-Halo, competitor TCF4-Luc.
The target in test [11] is full-length beta-Catenin (Uniprot ID P35222) (Homo sapiens (Human)) (UniProt P35222). In words: fluorescence polarization competition; full-length beta-catenin, competitor 5FAM-TCF4(10-53) probe.
Target sequence in this assay (P35222 whole entry, one chain of several): as the sequence (P35222 whole entry, one chain of several) above
Test [12] shares this target. In words: fluorescence polarization competition, full-length beta-catenin with 5FAM-TCF4(10-53) probe as competitor.
Target sequence in this assay (P35222 2-781 limits assumed): as the sequence (P35222 2-781 limits assumed) above
Test [13] concerns the target Bcat-Halo (UniProt P35222). In words: NanoBRET in HEK293 cells, B-cat-Halo/TCF4-Luc, absolute IC50.
Test [14] has as its target full-length beta-Catenin (Uniprot ID P35222) (Homo sapiens (Human)) (UniProt P35222). In words: fluorescence polarization competition against 5FAM TCF4 10-53 probe.
Target sequence in this assay (P35222 whole entry, one chain of several): as the sequence (P35222 whole entry, one chain of several) above
The target is the same in test [15]. In words: fluorescence polarization competition; 10 nM full-length beta-catenin + 10 nM 5FAM-TCF4(10-53) as competitor probe; peptide titrated (top concentration 10 uM).
Target sequence in this assay (P35222 2-781 limits assumed): as the sequence (P35222 2-781 limits assumed) above
The target in test [16] is Bcat-Halo (UniProt P35222). In words: NanoBRET in HEK293 cells, Bcat-Halo / TCF4-Luc; absolute IC50.
Test [17] concerns the target full-length beta-Catenin (Uniprot ID P35222) (Homo sapiens (Human)) (UniProt P35222). In words: FP competition; full-length beta-catenin, competitor 5FAM-TCF4(10-53).
Target sequence in this assay (P35222 whole entry, one chain of several): as the sequence (P35222 whole entry, one chain of several) above
The target is the same in test [18]. In words: fluorescence polarization competition; full-length beta-catenin + 5FAM-TCF4 10-53 probe, peptide titrated.

Bcat-Halo, sequence (P35222 whole entry): as the sequence (P35222 whole entry, one chain of several) above

B1: I-818 (peptide)
peptide: Ac-[αAllylPro]D[tBuAla][B5]DDAAFN[PyrS2″][3Thi][Bta][dN]-NH2
modifications: staple 1-4, 4-11
Turning to B1, the IC50 (usually the concentration needed to halve the response being measured) is 15000 nM in test [1] and 6 nM in test [2]. The EC50 – broadly, the concentration at which the effect is half-maximal – in test [3] was 6 nM.

B2: I-923 (peptide)
peptide: Ac-[αAllylPro]D[tBuAla][B5(3)]D[TfeGA]AAFF[PyrS2″][Phe(2-Cl)][Bta]Q-NH2
modifications: staple 1-4, 4-11
Turning to B2, the 50% inhibitory concentration (IC50) turned out to be 6000 nM in test [4] and 27 nM in [6]. The EC50 in [5] worked out at 27 nM.

B3: I-2142 (peptide)
peptide: Ac-[αAllylPro]D[tBuAla][B5]NTAAFN[PyrS2][3Thi][Bta]A-NH2
modifications: staple 1-4, 4-11; also: earlier eluting HPLC isomer
As for B3, the concentration for half-maximal inhibition (IC50) is over 20000 nM in [7] and 271 nM in [8].

B4: I-141 (peptide)
peptide: Ac-[αAllylPro]DA[B5(12)]DEAAFV[S8]F[2Nal]-NH2
modifications: staple 1-4, 4-11
On to B4, for which, in test [9], the EC50 turned out to be 5450 nM.

B5: I-677 (peptide)
peptide: Ac-[αAllylPro]D[tBuAla][B5(4)]DEAAFN[S8]F[Bta]Q-NH2
modifications: staple 1-4, 4-11
As for B5, the IC50 in [10] worked out at 6700 nM; in test [11], 22 nM. The molecule further registered an EC50 in test [12] of 22 nM.

B6: I-2599 (peptide)
peptide: 4pentenyl-XD[B5(3)]ADDAAF[PyrS2]L[3Thi][Bta]Q-NH2
modifications: staple 3-10; staple (positions not given here); not fully specified (residue 1, bridges); printed as 4pentenyl-MePro-Asp-B5-Ala-Asp-Asp-Ala-Ala-Phe-PyrS2-Leu-3Thi-BztA-Gln-NH2
For B6, the IC50 in test [13] was over 20000 nM; in [14], 234 nM.

B7: I-1740 (peptide)
peptide: Ac-[αAllylPro]D[tBuAla][B5(4)]NTAAFF[PyrS2″][3Thi][Bta]Q-NH2
modifications: staple 1-4, 4-11
Regarding B7, in test [15], the half-maximal inhibitory concentration (IC50) came to 10000 nM.

B8: I-1388 (peptide)
peptide: Ac-[αAllylPro]D[tBuAla][B5(4)]DDAAF[hSer][S8]F[Bta]Q-NH2
modifications: staple 1-4, 4-11
Consider B8, for which the figures for the IC50 in test [16] and in test [18] were 11300 nM and 18 nM, respectively. The EC50 in [17] turned out to be 18 nM.
